# How the values were obtained:
# [1] = molecular target: endogenous TTC5 of rabbit reticulocyte lysate (rabbit (endogenous in rabbit reticulocyte lysate)) (UniProt G1SNQ6); test: cross-linking; competition: porcine brain tubulin at the indicated concentrations added to isolated β-tubulin 94-mer RNCs (Bpa at position 7) carrying endogenous TTC5, 10 min on ice in PSB, then UV; autoradiography, anti-TTC5 immunoprecipitation
# [2] = molecular target: recombinant TTC5 labelled with Oregon Green 488 maleimide (human) (UniProt Q8N0Z6); test: MST; 50 nM Oregon Green 488-labelled TTC5 with various porcine tubulin concentrations in 250 mM NaCl, 1 mM TCEP, 20 mM HEPES pH 7.4; duplicates
# recombinant TTC5 labelled with Oregon Green 488 maleimide (human), sequence (Q8N0Z6 whole entry): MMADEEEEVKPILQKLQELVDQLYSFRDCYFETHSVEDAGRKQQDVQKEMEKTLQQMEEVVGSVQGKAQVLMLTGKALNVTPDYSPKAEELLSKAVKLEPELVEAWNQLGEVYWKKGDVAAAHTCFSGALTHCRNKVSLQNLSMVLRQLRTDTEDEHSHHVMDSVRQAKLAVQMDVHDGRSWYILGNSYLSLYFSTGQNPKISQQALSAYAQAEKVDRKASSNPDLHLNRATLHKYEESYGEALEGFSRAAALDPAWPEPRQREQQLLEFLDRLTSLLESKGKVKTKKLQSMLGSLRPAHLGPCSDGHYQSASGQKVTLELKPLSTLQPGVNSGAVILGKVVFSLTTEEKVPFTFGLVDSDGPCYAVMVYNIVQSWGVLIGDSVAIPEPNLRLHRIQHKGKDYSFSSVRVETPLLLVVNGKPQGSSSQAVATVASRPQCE
# endogenous TTC5 of rabbit reticulocyte lysate (rabbit (endogenous in rabbit reticulocyte lysate)), sequence (G1SNQ6 entry or part of it): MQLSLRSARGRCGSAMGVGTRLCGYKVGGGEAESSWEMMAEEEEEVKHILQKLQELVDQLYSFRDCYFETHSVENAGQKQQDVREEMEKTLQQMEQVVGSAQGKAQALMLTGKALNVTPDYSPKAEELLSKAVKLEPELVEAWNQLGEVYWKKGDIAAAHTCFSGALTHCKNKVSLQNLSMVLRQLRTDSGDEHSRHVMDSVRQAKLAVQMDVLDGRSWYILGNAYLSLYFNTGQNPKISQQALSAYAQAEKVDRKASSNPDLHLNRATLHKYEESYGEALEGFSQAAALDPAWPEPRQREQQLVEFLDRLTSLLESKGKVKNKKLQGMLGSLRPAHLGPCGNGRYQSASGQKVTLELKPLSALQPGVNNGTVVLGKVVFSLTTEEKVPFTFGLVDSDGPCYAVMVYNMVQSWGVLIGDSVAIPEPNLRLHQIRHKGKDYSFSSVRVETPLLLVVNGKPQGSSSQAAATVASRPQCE
substance,measurement,setting,value
porcine brain αβ-tubulins (from UniProt P02550 1-451; Q767L7 1-444) (complex),Ki,[1],500 nM
same,Kd,[2],500 nM

# From paper PMC11570694
